Experimental data taken from the Human Domainome abundance scans (Beltran et al. 2025).

B1: Glucocorticoid receptor, residues 419 to 494; numbered along this chain, P04150 (parent)
chain: KLCLVCSDEASGCHYGVLTCGSCKVFFKRAVEGQHNYLCAGRNDCIIDKIRRKNCPACRYRKCLQAGMNLEARKTK

Variants of: B1
Experiment: abundance fitness (aPCA) (normalised: wild type 0, dead -1); higher = more abundant; growth selection in yeast, the domain comes from the species named
Details: Homo sapiens

Abundance fitness, by site and new letter:
A40: Y -0.032, F -0.088, N -0.024, H -0.192, W -0.079, G -0.04, I -0.038, C -0.137, R -0.043, D -0.136, Q 0.012, M -0.058, V 0.019, T -0.067, L -0.065, P -0.066, E -0.048
L38: A 0.01, H 0.035, Y -0.035, F 0.018, M 0.02, G -0.059, T -0.035, C -0.03, P -0.155, Q -0.024, S -0.035, K 0.033, V 0.058, E 0.012, I -0.043, N 0.02, D 0.102
N43: A -0.027, I -0.233, K 0.013, W -0.056, P -0.575, L -0.123, S -0.044, D -0.008, C -0.193, T -0.134, E 0.011, Y -0.008, R -0.052, G -0.024, Q 0.028, V -0.285, F -0.02
C45: V -0.698, M -1.18, H -0.168, I -0.948, E -0.762, A -0.797, Q -0.558, T -0.99, F -0.649, K -1.27, R -0.778, P -1.02, W -0.932, L -0.917
N36: L -0.036, S 0.022, I -0.054, K 0.038, V -0.106, G -0.057, Q -0.034, E 0.002, H -0.042, M 0.008, P -0.05, T -0.008, Y -0.259, F -0.006, W -0.151
Y37: F 0.011, V -0.116, C -0.299, P -0.104, D -0.144, R -0.211, T -0.084, L -0.003, I -0.08, N -0.026, K -0.122, Q -0.137, M 0.013, G -0.074, E -0.107, H -0.117
G41: R 0.02, L -0.013, I -0.101, E -0.043, M -0.004, Q -0.055, N 0.032, S -0.031, A -0.016, K 0.011, C -0.005, D -0.049, V -0.051, T -0.04, W -0.017, Y -0.123
R42: N 0.093, I -0.062, T 0.036, W -0.077, Y -0.065, G 0.009, Q 0.127, F 0.077, K 0.106, D 0.06, L 0.012, S 0.001, M -0.024, E 0.011, A 0.01, H -0.011, C -0.064, V 0.033
C39: P -0.585, V -1, R -0.976, I -1, T -0.553, H -0.575, K -0.787, Y -0.951, W -0.992, E -0.641, L -0.923, Q -0.586, G -0.716, M -0.998, S -0.927, D -0.863, N -0.603, F -0.603
D44: N -0.073, I -0.344, C 0.009, H -0.11, V -0.053, M 0, T -0.023, Q -0.026, G -0.145, W -0.423, P -0.323, E 0.032, K -0.062, R -0.088, L -0.189, F -0.381, Y -0.37, A -0.014, S -0.08
